Read-outs that look alike come from different tables or passages of the source.
B1: 15D6 rat anti-DLL4 monoclonal antibody (antibody, rat IgG2a, V domains shown)
VH: EVQLQQSGPELAKPGSSVKISCKASGYTFTSSYISWIKQTTGQGLEYIGYINTGSGGTDYNEKFKDKATLTVDKSSRTVFMQLSSLTPGDSAVYYCAKSILLGSTYYLDYWGQGVMVTVSS
VL: DTVLTQSPALAVSLGQRVTISCKASRSLSSPMYSYIYWYQQKLGQQPRLLIYRASTLASGVPARFSGSGSGTDFTLNIDPVEADDIATYFCQQSWSDPFTFGSGTKLEIKR
notes: rat IgG2a/K hybridoma mAb; also called MC13-15D6.1G7
B2: 14A11 chimeric antibody (antibody, human IgG1, V domains shown)
VH: EVQLQQSGPELAKPGSSVKISCKASGYTFTNSYISWIKQTTGQGLEYVGYINTGSGGADYNEKFKGKATLTVDKSSRTAFMQLSSLTPGDSAVYYCAKSILLGSTCYFDYWGQGVLVTVSS
VL: NTVLTQSPALAVSLGQRVTISCKASRSVSSPMYSYIYWYQQKPGQQPKLLIYRASTLASGVPARFSGSGSGTDFTLNIDPVEADDIATYFCQQSWSDPFTFGSGTKLEIKR
notes: also called Chimera of 14A11
B3: 15D6 chimeric antibody (antibody, human IgG1, V domains shown)
VH: EVQLQQSGPELAKPGSSVKISCKASGYTFTSSYISWIKQTTGQGLEYIGYINTGSGGTDYNEKFKDKATLTVDKSSRTVFMQLSSLTPGDSAVYYCAKSILLGSTYYLDYWGQGVMVTVSS
VL: DTVLTQSPALAVSLGQRVTISCKASRSLSSPMYSYIYWYQQKLGQQPRLLIYRASTLASGVPARFSGSGSGTDFTLNIDPVEADDIATYFCQQSWSDPFTFGSGTKLEIKR
notes: also called Chimera of 15D6
B4: 37D10 chimeric antibody (antibody, human IgG1, V domains shown)
VH: AVQLVESGGGLVQPKESLKISCAASGFTFSNAAMYWVRLAPGKGLEWVARIRTKPNNYATYYAESVKGRFTISRDDSKSMVYVQMDNLKTEDTAMYYCTAAPWRDSYAHVYWGQGVMVTVSS
VL: DIQMTQSPPVLSASVGDRVTLSCKASQNIHKNLDWYQQKHGDAPKLLIYYTDHLQTGVPSRFSGSGSATDYTLTISSLQPEDVATYYCYQYNGGPFTFGSGTKLEIKR
notes: also called Chimera of 37D10
B5: 14G1 rat anti-DLL4 monoclonal antibody (antibody, rat IgG2a, V domains shown)
VH: EVQLQQSGAELAKPGSSVKISCKASGYTFTNYDISWIKQTNGQGLEYLGYINTGSGGIYSNEKFKGKATLTVDKSSNTAFMQLSSLTPEDTAVYYCVREGNNFDHWGQGVKVTVSS
VL: DTVMTQSPASMSTSVGERVTVNCKASQSVGTIVAWFQQKPGQSPKRLIYLATYRHTGVPDRFIGSGFGRDFTLTISNVEAEDLAVYYCLQYGSRPFTFGAGTKLEIKR
notes: rat IgG2a/K hybridoma mAb; also called MC13-14G1.1B4
B6: 32C7 rat anti-DLL4 monoclonal antibody (antibody, rat IgG2a, V domains shown)
VH: EVQLVESGGGLVQPGRSLKLSCLASGFPFSSVWMTWIRQAPGKGLEWIATITNSGASTYYSASVKGRFTISRDNVKSTLYLQMTSLGSEDTATYYCTRVGTSFDYWGQGVMVTVSS
VL: DIQMTQSPASLSASLGETVTIECRASDDIYNGLAWFQQKPGKSPQLLIYDANTLHTGVPSRFSGSGSGTQFSLKINSLQSEDVASYFCQQFYDYPPYTFGAGTKLELKR
notes: rat IgG2a/k hybridoma mAb; also called MC10-32C7.5A4

Key:
[1] = molecular target: T1, mouse DLL4 extracellular domain (mouse, UniProt Q9JI71 27-532); experiment: SPR (Biacore)
T1 construct: extracellular domain; also called muDLL4 ECD; murine DLL4
T1 sequence (Q9JI71 27-532): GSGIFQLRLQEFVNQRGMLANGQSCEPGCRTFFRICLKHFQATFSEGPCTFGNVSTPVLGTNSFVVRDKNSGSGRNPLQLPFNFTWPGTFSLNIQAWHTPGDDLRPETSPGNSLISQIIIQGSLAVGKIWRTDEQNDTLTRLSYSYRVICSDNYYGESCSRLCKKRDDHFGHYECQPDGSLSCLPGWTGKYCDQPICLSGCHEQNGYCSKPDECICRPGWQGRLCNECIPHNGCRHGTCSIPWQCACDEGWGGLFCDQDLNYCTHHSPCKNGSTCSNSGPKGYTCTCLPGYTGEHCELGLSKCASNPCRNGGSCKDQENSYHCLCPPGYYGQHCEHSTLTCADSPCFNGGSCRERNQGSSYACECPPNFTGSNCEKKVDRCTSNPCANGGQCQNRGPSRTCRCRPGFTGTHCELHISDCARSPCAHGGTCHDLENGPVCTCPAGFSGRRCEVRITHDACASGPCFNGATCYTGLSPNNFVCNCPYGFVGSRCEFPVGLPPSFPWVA
Method in brief: (§1)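 Purified anti-DLL4 antibodies (1 μg/ml) captured on immobilized goat anti-human Fc, with DLL4 ECD injected as analyte; HBS-EPB running buffer (pH 7.4), 25° C, referenced against capture-only surface. On/off rates from global 1:1 Langmuir fit; KD = Koff/Kon.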

[2] = molecular target: T2, rat DLL4 extracellular domain (rat, UniProt D3ZHH1 28-530); experiment: SPR (Biacore)
T2 construct: extracellular domain; also called ratDLL4 ECD
T2 sequence (D3ZHH1 28-530): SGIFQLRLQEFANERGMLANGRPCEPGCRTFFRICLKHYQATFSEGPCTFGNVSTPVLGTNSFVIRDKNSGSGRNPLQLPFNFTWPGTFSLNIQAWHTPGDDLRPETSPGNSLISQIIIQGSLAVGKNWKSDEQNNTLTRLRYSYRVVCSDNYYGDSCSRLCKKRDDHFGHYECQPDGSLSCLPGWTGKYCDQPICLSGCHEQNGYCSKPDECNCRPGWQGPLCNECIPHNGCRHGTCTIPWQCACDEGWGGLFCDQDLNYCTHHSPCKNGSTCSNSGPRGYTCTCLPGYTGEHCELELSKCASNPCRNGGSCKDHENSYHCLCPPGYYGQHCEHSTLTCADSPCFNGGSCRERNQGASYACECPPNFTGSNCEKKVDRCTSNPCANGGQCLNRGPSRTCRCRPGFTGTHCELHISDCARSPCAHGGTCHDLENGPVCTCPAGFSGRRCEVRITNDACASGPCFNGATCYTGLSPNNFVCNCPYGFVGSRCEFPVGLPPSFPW
Method in brief: as §1

[3] = molecular target: T3, mouse DLL4 on cells (mouse, UniProt Q9JI71 27-686); experiment: competition FACS: huNotch-1-biotin to DLL4 cells
T3 construct: whole, on cells; also called mouse DLL4-293G; mu DLL4 cells
T3 sequence (Q9JI71 27-686): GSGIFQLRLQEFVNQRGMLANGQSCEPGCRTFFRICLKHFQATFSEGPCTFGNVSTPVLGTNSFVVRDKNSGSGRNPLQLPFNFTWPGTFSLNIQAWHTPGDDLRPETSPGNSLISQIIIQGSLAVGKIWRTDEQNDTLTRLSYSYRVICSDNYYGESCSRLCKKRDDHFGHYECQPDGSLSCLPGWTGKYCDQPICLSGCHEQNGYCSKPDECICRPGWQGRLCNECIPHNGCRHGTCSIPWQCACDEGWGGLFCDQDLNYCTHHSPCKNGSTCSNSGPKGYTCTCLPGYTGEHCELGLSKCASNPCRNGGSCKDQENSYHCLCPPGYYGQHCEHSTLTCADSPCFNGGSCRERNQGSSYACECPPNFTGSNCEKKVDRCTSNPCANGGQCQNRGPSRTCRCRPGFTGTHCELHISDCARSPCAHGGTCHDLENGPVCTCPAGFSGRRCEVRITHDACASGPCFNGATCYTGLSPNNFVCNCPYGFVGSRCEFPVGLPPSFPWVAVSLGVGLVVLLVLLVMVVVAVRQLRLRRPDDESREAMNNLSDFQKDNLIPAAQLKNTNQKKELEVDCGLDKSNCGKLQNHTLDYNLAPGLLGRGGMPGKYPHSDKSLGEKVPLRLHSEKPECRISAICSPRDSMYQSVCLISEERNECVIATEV
Protocol: (§2) Notch blocking assay: Briefly, stable cell lines overexpressing cell-surface DLL4 were harvested from tissue culture flasks and re-suspended in phosphate buffered saline (PBS) containing 1% bovine serum albumin and 1 mM CaCl₂ (FACS buffer). HEK293G-DLL4 cells were dispensed into 96-well plate (v-bottom) at 1.5×10⁵ cells/well in FACS buffer. After spinning down cells and discarding the supernatant, 50 μL of purified IgG with appropriate dilution were added to each well, and incubated on ice at 4° C. for 60 minutes, followed by addition of 50 μL/well of Notch1-biotin at 0.2 μg/mL for human DLL4-293G or 2.0 μg/mL for mouse DLL4-293G (1.0 or 0.1 μg/mL final) for an additional 1 hour incubation ice at 4° C. After washing the cells two times with FACS buffer, 50 μL of R-phycoerythrin-conjugated streptavidin (1:150 dilution in FACS buffer) (Jackson ImmunoResearch, West Grove, Pa., Cat.#016-110-084) were added. Following an incubation on ice (4° C., 60 minutes), cells were washed three times and resuspended in FACS buffer. Fluorescence was measured using a Becton Dickinson FACSCalibur-HTS (Becton Dickinson, San Jose, Calif.). Data were analyzed using Graphpad Prism software, and IC₅₀ values were reported as the concentration of antibody to achieve 50% reduction of Notch1 bound to DLL4 expressing cells. […]

[4] = molecular target: T4, human DLL4, full length, on cells (human, UniProt Q9NR61 27-685); experiment: competition FACS: huNotch-1-biotin to DLL4 cells
T4 construct: also called huDLL4 cells; human DLL4-293G
T4 sequence (Q9NR61 27-685 limits assumed): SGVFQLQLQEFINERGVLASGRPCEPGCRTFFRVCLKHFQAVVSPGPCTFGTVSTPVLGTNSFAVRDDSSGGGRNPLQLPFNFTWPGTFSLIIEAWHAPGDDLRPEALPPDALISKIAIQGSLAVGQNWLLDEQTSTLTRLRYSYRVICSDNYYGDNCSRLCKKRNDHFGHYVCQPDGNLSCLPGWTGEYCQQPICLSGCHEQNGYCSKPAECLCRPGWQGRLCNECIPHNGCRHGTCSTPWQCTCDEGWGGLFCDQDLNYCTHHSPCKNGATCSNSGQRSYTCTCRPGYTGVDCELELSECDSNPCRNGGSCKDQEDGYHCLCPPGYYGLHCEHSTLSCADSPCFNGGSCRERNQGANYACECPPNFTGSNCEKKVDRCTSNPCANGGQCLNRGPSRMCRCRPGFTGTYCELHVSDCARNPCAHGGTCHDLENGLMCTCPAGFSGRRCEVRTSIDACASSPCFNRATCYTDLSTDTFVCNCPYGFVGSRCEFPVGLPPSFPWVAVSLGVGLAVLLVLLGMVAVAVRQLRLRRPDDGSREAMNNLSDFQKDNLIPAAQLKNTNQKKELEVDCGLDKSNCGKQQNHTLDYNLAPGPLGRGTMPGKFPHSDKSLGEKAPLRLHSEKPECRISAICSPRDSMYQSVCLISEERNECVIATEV
Protocol: as §2

[5] = molecular target: T5, cynomolgus monkey DLL4 extracellular domain (cynomolgus monkey); experiment: SPR (Biacore)
T5 construct: extracellular domain; also called cynoDLL4 ECD; Cyno DLL4
Protocol: (§3) The BIACORE® surface plasmon resonance assay (Biacore, Inc., Piscataway, N.J., US) determines the affinity of antibodies with kinetic measurements of on-rate and off-rate constants. Binding of DLL4 antibodies to a purified recombinant DLL4 extracellular domain (ECD) was determined by surface plasmon resonance-based measurements with a Biacore® instrument (either a Biacore 2000, Biacore 3000, or Biacore T100; GE Healthcare, Piscataway, N.J., US) using running buffer HBS-EPB (10 mM HEPES [pH 7.4], 150 mM NaCl, 3 mM EDTA, 0.1 mg/ml BSA and 0.005% surfactant P20) at 25° C. For example, approximately 9000 RU of goat anti-human Fc specific polyclonal antibody (Thermo Fisher Scientific Inc., Rockford, Ill., US) diluted in 10 mM sodium acetate (pH 4.5) is directly immobilized across a CMS research grade biosensor chip using a standard amine coupling kit according to manufacturer's instructions and procedures at 25 μg/ml. Unreacted moieties on the biosensor surface were blocked with ethanolamine. For kinetic analysis, rate equations derived from the 1:1 Langmuir binding model were fitted simultaneously to multiple antigen injections (using global fit analysis) with the use of Scrubber 2 (BioLogic Software), Biacore Biaevaluation 4.0.1 software or Biacore T100 Evaluation software. Purified antibodies were diluted in running buffer for capture across goat anti-human Fc reaction surfaces. Antibodies to be captured as a ligand (1 μg/ml) were injected over reaction matrices at a flow rate of 10 μl/min. During the assay, all measurements were referenced against the capture surface alone (i.e., with no captured anti-DLL4 antibody). […] The equilibrium dissociation constant KD (M) of the reaction between antibodies and the target antigen was then calculated from the kinetic rate constants by the following formula: KD=Koff/Kₒₙ. Binding was recorded as a function of time and kinetic rate constants were calculated.

[6] = molecular target: T6, human DLL4 extracellular domain (human, UniProt Q9NR61 27-529); experiment: SPR (Biacore)
T6 construct: purified recombinant ECD; biotin-labelled or 6xHis-tagged depending on the assay; also called huDLL4 ECD; hu DLL4 ECD
T6 sequence (Q9NR61 27-529 limits assumed): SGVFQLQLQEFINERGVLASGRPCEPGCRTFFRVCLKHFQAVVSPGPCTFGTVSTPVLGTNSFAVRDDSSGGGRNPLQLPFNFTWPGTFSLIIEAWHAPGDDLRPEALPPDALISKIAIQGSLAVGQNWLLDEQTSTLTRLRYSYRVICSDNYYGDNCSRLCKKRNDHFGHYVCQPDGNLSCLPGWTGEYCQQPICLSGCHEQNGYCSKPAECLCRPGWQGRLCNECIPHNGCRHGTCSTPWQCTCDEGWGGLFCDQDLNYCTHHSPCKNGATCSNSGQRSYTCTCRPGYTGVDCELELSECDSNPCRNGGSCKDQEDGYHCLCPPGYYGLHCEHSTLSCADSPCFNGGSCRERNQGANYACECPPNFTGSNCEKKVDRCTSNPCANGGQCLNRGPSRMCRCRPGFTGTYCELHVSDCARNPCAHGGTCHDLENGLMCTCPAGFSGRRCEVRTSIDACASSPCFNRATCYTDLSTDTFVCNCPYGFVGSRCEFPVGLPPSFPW
Protocol: as §3

[7] = molecular target: T3, mouse DLL4 on cells; experiment: FACS, DLL4 cells
Protocol: (§4) Stable cell lines overexpressing cell-surface DLL4 were harvested from tissue culture flasks, washed four times and resuspended in phosphate buffered saline (PBS) containing 1% bovine serum albumin and 1 mM CaCl₂ (FACS buffer). 1.5×10⁵ cells were incubated with antibodies at various concentrations in FACS buffer for 60 minutes on ice. […] Following an incubation on ice (4° C., 60 minutes), cells were washed three times and resuspended in FACS buffer. Fluorescence was measured using a Becton Dickinson FACSCalibur-HTS (Becton Dickinson, San Jose, Calif., US). Data were analyzed using Graphpad Prism software and EC₅₀ values were reported as the concentration of antibody to achieve 50% of maximal DLL4 antibodies binding to DLL4 expressing cells. […]

[8] = molecular target: T4, human DLL4, full length, on cells; experiment: FACS, DLL4 cells
Protocol: as §4

[9] = molecular target: T4, human DLL4, full length, on cells; experiment: cell-based or functional assay
[10] = molecular target: T3, mouse DLL4 on cells; experiment: competition FACS: huNotch-1 to DLL4 cells
Protocol: (§5) Notch blocking assay: Briefly, stable cell lines overexpressing cell-surface DLL4 were harvested from tissue culture flasks and re-suspended in phosphate buffered saline (PBS) containing 1% bovine serum albumin and 1 mM CaCl₂ (FACS buffer). HEK293G-DLL4 cells were dispensed into 96-well plate (v-bottom) at 1.5×10⁵ cells/well in FACS buffer. After spinning down cells and discarding the supernatant, 50 μL of purified IgG with appropriate dilution were added to each well, and incubated on ice at 4° C. for 60 minutes, followed by addition of 50 μL/well of Notch1-biotin at 0.2 μg/mL for human DLL4-293G or 2.0 μg/mL for mouse DLL4-293G (1.0 or 0.1 μg/mL final) for an additional 1 hour incubation ice at 4° C. After washing the cells two times with FACS buffer, 50 μL of R-phycoerythrin-conjugated streptavidin (1:150 dilution in FACS buffer) (Jackson ImmunoResearch, West Grove, Pa., Cat.#016-110-084) were added. Following an incubation on ice (4° C., 60 minutes), cells were washed three times and resuspended in FACS buffer. Fluorescence was measured using a Becton Dickinson FACSCalibur-HTS (Becton Dickinson, San Jose, Calif.). Data were analyzed using Graphpad Prism software, and IC₅₀ values were reported as the concentration of antibody to achieve 50% reduction of Notch1 bound to DLL4 expressing cells.

[11] = molecular target: T4, human DLL4, full length, on cells; experiment: competition FACS: huNotch-1 to DLL4 cells
Protocol: as §5

[12] = molecular target: T3, mouse DLL4 on cells; experiment: FACS, DLL4 cells; remark: listed apart in the source
[13] = molecular target: T4, human DLL4, full length, on cells; experiment: FACS, DLL4 cells; remark: listed apart in the source
[14] = molecular target: T1, mouse DLL4 extracellular domain; experiment: binding ELISA, DLL4 ECD
[15] = molecular target: T6, human DLL4 extracellular domain; experiment: binding ELISA, DLL4 ECD

Row | Binder | Kd [1] | koff [1] | kon [1] | binding result [2] | IC50 [4] | Kd [5] | koff [5] | kon [5] | Kd [6] | koff [6] | kon [6] | EC50 [7] | EC50 [8] | Notch activation Inhibition (IC50, nM), huDLL4 cell/Notch reporter cells [9] | IC50 [10] | IC50 [11] | EC50 [12] | EC50 [13] | further results
1 | B1 | 0.7 nM | 5.1e-05 s⁻¹ | 74000 M⁻¹ s⁻¹ | no binding | 25 nM | 14.9 nM | 0.00083 s⁻¹ | 56000 M⁻¹ s⁻¹ | 9.2 nM | 0.001 s⁻¹ | 110000 M⁻¹ s⁻¹ | 1.6 nM | 15 nM | 3.2 nM |  |  |  |  | IC50 [3]: 1.5 nM
2 | B2 |  |  |  |  |  |  |  |  |  |  |  |  |  |  | 1.39 nM | 4.03 nM | 2.14 nM | 1.61 nM | 
3 | B3 |  |  |  |  |  |  |  |  |  |  |  |  |  |  | 1.49 nM | 10.5 nM | 1.82 nM | 1.72 nM | 
4 | B4 |  |  |  |  |  |  |  |  |  |  |  |  |  |  | 4.39 nM | 5.95 nM | 0.99 nM | 2.32 nM | 
5 | B5 |  |  |  | no binding | 4.2 nM | 10.5 nM | 0.00041 s⁻¹ | 39000 M⁻¹ s⁻¹ | 7.2 nM | 0.00039 s⁻¹ | 54000 M⁻¹ s⁻¹ | > 50 nM | 8.6 nM | 6.1 nM |  |  |  |  | binding result [1]: no binding
6 | B6 | 88 nM | 0.0041 s⁻¹ | 48000 M⁻¹ s⁻¹ |  |  | 0.03 nM | 6.3e-06 s⁻¹ | 220000 M⁻¹ s⁻¹ | 0.03 nM | 7e-06 s⁻¹ | 280000 M⁻¹ s⁻¹ | 0.8 nM | 3.1 nM |  |  |  |  |  | EC50 [14]: 0.15 nM; EC50 [15]: 0.08 nM

From US20110217237A1 (AbbVie / Abbott, published 2011)
